Test results: PMC6509284, “Aurora B-INCENP Localization at Centromeres/Inner Kinetochores Is Required for Chromosome Bi-orientation in Budding Yeast” (Current Biology, 2019)
Blank lines part the entries; values can stand above or below the binder they belong to.

Biological target: T1, recombinant COMA (Ctf19-Okp1-Mcm21-Ame1) inner kinetochore sub-complex (budding yeast (S. cerevisiae), UniProt P53298 1-406; P38313 1-324; Q02732 1-369; Q06675 1-368)
T1 construct: Okp1, budding yeast, essential COMA component; His-Okp1 printed as 49 kDa; Ame1, budding yeast, essential COMA component; printed as 37 kDa; Ctf19, budding yeast, non-essential COMA component; 'coding regions' cloned; printed as 43 kDa; Mcm21, budding yeast, non-essential COMA component; also called COMA components; source: E. coli RosettaGami2(DE3)pLysS, four subunits co-expressed, purified …
Assay: pull-down; GST fusion proteins incubated with purified COMA in 50 mM HEPES-NaOH pH 7.4, 150 mM NaCl, 5% glycerol, 0.05% Igepal, 2 mM DTT, 0.5 mM EDTA, 20 min at 4°C, then 1 h on GST-Trap Agarose at 4°C, three washes; Coomassie blue staining, anti-His western blot and mass spectrometry
Conditions: both partners purified

T1 sequence (P53298 whole entry, chain 1 of 4): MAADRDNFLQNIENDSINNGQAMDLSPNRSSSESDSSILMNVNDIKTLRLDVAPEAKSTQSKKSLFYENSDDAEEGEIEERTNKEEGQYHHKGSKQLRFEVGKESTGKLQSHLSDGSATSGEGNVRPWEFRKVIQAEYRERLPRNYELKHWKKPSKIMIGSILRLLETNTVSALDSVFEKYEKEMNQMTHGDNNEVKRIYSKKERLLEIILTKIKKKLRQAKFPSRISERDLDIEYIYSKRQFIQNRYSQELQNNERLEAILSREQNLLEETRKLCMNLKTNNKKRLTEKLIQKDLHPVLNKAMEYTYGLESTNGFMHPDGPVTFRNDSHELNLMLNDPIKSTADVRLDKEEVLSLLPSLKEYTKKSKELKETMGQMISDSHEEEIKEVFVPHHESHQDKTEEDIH
T1 sequence (P38313 whole entry, chain 2 of 4): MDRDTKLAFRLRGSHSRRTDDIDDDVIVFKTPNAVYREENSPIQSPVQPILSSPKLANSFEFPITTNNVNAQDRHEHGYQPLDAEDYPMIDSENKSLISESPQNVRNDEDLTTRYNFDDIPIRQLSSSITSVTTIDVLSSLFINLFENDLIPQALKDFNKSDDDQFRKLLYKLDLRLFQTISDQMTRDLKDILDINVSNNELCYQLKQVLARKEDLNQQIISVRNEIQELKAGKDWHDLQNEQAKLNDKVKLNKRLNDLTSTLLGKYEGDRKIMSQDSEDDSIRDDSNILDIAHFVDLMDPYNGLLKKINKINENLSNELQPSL
T1 sequence (Q02732 whole entry, chain 3 of 4): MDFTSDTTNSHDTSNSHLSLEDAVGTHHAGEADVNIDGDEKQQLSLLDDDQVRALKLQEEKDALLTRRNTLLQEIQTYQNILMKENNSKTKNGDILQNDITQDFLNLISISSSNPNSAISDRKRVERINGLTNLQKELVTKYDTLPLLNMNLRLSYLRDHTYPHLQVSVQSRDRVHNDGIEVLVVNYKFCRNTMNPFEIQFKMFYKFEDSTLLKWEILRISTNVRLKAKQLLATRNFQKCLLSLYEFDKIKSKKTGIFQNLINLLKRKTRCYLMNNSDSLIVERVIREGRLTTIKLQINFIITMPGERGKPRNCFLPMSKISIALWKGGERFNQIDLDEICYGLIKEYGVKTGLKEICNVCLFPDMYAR
T1 sequence (Q06675 whole entry, chain 4 of 4): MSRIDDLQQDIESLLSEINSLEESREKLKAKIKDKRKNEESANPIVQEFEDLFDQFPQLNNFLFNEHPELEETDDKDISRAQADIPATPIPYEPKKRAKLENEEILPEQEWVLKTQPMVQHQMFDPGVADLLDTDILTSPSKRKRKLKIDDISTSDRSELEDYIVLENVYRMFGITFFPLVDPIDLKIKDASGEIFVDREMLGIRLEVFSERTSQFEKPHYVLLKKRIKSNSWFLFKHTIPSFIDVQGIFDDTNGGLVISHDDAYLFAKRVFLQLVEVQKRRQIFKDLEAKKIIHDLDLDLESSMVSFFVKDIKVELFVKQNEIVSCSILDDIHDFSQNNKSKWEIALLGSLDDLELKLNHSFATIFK

binding result: binds
B1: GST-Sli15 (1-401 aa) (domain or fragment, budding yeast (S. cerevisiae), UniProt P38283 1-401, looked up)
chain: MDWAIKAARKKTQRKPGSTRSIIETLDDLNNLTTDAHSEINQRLYESSEWLRNNVYMNTLKYEDKKMEESLISPENTHNKMDVEFPKMKGEYELSNSQNDAAKDVTKTPRNGLHNDKSITPKSLRRKEVTEGMNRFSIHDTNKSPVEPLNSVKVDANESEKSSPWSPYKVEKVLRESSKTSESPINTKRFDNQTWAAKEEMENEPILQALKKAESVKVKPPPNSGIARSQRRSNMFVPLPNKDPLIIQHIPPTKSSGSIPKVRTVKESPIAFKKKSTINSPAIRAVENSDTAGSTKASSVFDRLSSIPTKSFENKISRGNVGHKYSSSSIDLTGSPMKKVSQKFKSINSTDTDMQEALRDIFSVKNKITKNNSPKGKNSRKSSIPRFDKTSLKLTTHKKLA
notes: Printed size 72 kDa; source: E. coli RosettaGami2, purified (GSTrap FF, Superdex 200)

binding result: binds
B2: GST-Sli15 (393-698 aa) (domain or fragment, budding yeast (S. cerevisiae), UniProt P38283 393-698, looked up)
chain: KLTTHKKLAIIAEQKKKSKHSSDVHKTGSRPHSISPTKISVDSSSPSKEVKNYYQSPVRGYLRPTKASISPNKNKNLTTSQTPHRLKIKEKTLRKLSPNIADISKPESRKSKNYRLTNLQLLPPAEAERDDLKKKFDKRLSGIMRSQQEHHRRKQEKQKRMSHLEQDLKKQTSFSNDYKDIRLKESLAPFDNHVRDTINKNTAFSTDNILATINTVDHREIIGNVTPKIASVNDSLPEINTDSEDEASVTLAAWAKSPYLQEQLIRQQDINPQTIFGPIPPLHTDEIFPNPRLNRLKPRQIVPKRS
notes: Sli15 (yeast INCENP), budding yeast, residues 393-698; Printed size 60 kDa; also called pGEX6P-1-GST-SLI15 (393-698); source: E. coli RosettaGami2, purified (GSTrap FF, Superdex 200)
